Experimental data as given in the supplement of paper PMC7125110.
± gives the standard error. For some of these results: This sample holds only a part of the variants without activity.

B1: glmS ribozyme (parent)
chain: AUAAAAGCGCCAGAACUACAGAAAUGUAGUUGACGAGGAGGAGGUUUAUCGAAUUUUCGGCGGAUGCCUCCAAA

Assays:
Details in all cases: with glucosamine-6-phosphate
[1] = variants of: B1; assay: kcat; higher = faster cleavage; RNA array
Procedure, shortened: (§1)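 Weighted Michaelis–Menten fits across concentrations supplied kcat and KM, based on kobs from one- or two-exponential decay fits to normalised per-tile medians. The data came from barcoded ribozyme variants transcribed in situ by E. coli RNA polymerase on sequenced MiSeq chips and tracked at 37 °C by a hybridised Cy3 probe. Glucosamine-6-phosphate (40 μM to 10 mM) in HEPES/KCl/Mg(OAc)2 buffer was flowed in.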

[2] = variants of: B1; assay: KM; higher = weaker cofactor use; RNA array
Procedure, shortened: as §1

[3] = variants of: B1; assay: self-cleavage kobs at 40 uM GlcN6P; higher = faster cleavage; RNA array
Procedure, shortened: as §1

[4] = variants of: B1; assay: self-cleavage kobs at 160 uM GlcN6P; higher = faster cleavage; RNA array
Procedure, shortened: as §1

[5] = variants of: B1; assay: self-cleavage kobs at 2500 uM GlcN6P; higher = faster cleavage; RNA array
Procedure, shortened: as §1

[6] = variants of: B1; assay: self-cleavage kobs at 640 uM GlcN6P; higher = faster cleavage; RNA array
Procedure, shortened: as §1

[7] = variants of: B1; assay: self-cleavage kobs at 10000 uM GlcN6P; higher = faster cleavage; RNA array
Procedure, shortened: as §1

C61G G63C
kcat [1]: < 1e-05 s⁻¹ | KM [2]: 181 ± 67 µM | self-cleavage kobs at 40 uM GlcN6P [3]: < 1e-05 s⁻¹ | self-cleavage kobs at 160 uM GlcN6P [4]: < 1e-05 s⁻¹ | self-cleavage kobs at 2500 uM GlcN6P [5]: < 1e-05 s⁻¹

U54G G59C
kcat [1]: < 1e-05 s⁻¹ | self-cleavage kobs at 640 uM GlcN6P [6]: < 1e-05 s⁻¹

U57A
kcat [1]: 0.000404 ± 1.3e-05 s⁻¹ | KM [2]: 3120 ± 170 µM | self-cleavage kobs at 160 uM GlcN6P [4]: 2.27e-05 ± 2.2e-06 s⁻¹ | self-cleavage kobs at 640 uM GlcN6P [6]: 6.91e-05 ± 1.6e-06 s⁻¹ | self-cleavage kobs at 2500 uM GlcN6P [5]: 0.000175 ± 4e-06 s⁻¹ | self-cleavage kobs at 10000 uM GlcN6P [7]: 0.000311 ± 6.3e-06 s⁻¹

U57C
kcat [1]: 0.000311 ± 3.8e-06 s⁻¹ | KM [2]: 3180 ± 76 µM | self-cleavage kobs at 160 uM GlcN6P [4]: 1.34e-05 ± 2.2e-06 s⁻¹ | self-cleavage kobs at 640 uM GlcN6P [6]: 5.24e-05 ± 1.5e-06 s⁻¹ | self-cleavage kobs at 2500 uM GlcN6P [5]: 0.000136 ± 3.2e-06 s⁻¹ | self-cleavage kobs at 10000 uM GlcN6P [7]: 0.000236 ± 4.4e-06 s⁻¹

U57G
kcat [1]: 0.000109 ± 3.4e-06 s⁻¹ | KM [2]: 2910 ± 250 µM | self-cleavage kobs at 640 uM GlcN6P [6]: 2.22e-05 ± 1.9e-06 s⁻¹ | self-cleavage kobs at 2500 uM GlcN6P [5]: 4.95e-05 ± 1.4e-06 s⁻¹ | self-cleavage kobs at 10000 uM GlcN6P [7]: 8.52e-05 ± 1.5e-06 s⁻¹

U56G C58A
kcat [1]: 0.000993 ± 0.00023 s⁻¹ | KM [2]: 6930 ± 2300 µM | self-cleavage kobs at 640 uM GlcN6P [6]: 7.48e-05 ± 1.1e-05 s⁻¹ | self-cleavage kobs at 2500 uM GlcN6P [5]: 0.000312 ± 3.6e-05 s⁻¹ | self-cleavage kobs at 10000 uM GlcN6P [7]: 0.000556 ± 7.1e-05 s⁻¹

G59U C70U
kcat [1]: 9.84e-05 ± 6.1e-06 s⁻¹ | KM [2]: 899 ± 210 µM | self-cleavage kobs at 640 uM GlcN6P [6]: 4.56e-05 ± 9.2e-06 s⁻¹ | self-cleavage kobs at 2500 uM GlcN6P [5]: 6.69e-05 ± 8.1e-06 s⁻¹ | self-cleavage kobs at 10000 uM GlcN6P [7]: 9.36e-05 ± 8.8e-06 s⁻¹

U56A A64C
kcat [1]: 6.42e-05 ± 1e-05 s⁻¹ | self-cleavage kobs at 40 uM GlcN6P [3]: < 1e-05 s⁻¹ | self-cleavage kobs at 2500 uM GlcN6P [5]: 6.08e-05 ± 1.1e-05 s⁻¹ | self-cleavage kobs at 10000 uM GlcN6P [7]: 5.71e-05 ± 9.1e-06 s⁻¹

U56A A64U
kcat [1]: 5.11e-05 ± 2e-06 s⁻¹ | KM [2]: 1250 ± 250 µM | self-cleavage kobs at 2500 uM GlcN6P [5]: 3.54e-05 ± 1.6e-05 s⁻¹ | self-cleavage kobs at 10000 uM GlcN6P [7]: 4.52e-05 ± 1e-05 s⁻¹

C58U C61U
kcat [1]: < 1e-05 s⁻¹ | self-cleavage kobs at 40 uM GlcN6P [3]: < 1e-05 s⁻¹ | self-cleavage kobs at 640 uM GlcN6P [6]: < 1e-05 s⁻¹

U57G G59U U65G C68U
kcat [1]: 1.85e-05 ± 4.8e-06 s⁻¹

C58U G59U
kcat [1]: < 1e-05 s⁻¹ | self-cleavage kobs at 40 uM GlcN6P [3]: < 1e-05 s⁻¹ | self-cleavage kobs at 640 uM GlcN6P [6]: < 1e-05 s⁻¹ | self-cleavage kobs at 10000 uM GlcN6P [7]: < 1e-05 s⁻¹

C61A U65A
kcat [1]: < 1e-05 s⁻¹ | self-cleavage kobs at 2500 uM GlcN6P [5]: < 1e-05 s⁻¹

U57C U65G
kcat [1]: 3.4e-05 ± 3.5e-06 s⁻¹ | self-cleavage kobs at 2500 uM GlcN6P [5]: 3.03e-05 ± 1.3e-05 s⁻¹ | self-cleavage kobs at 10000 uM GlcN6P [7]: 3.07e-05 ± 1.1e-05 s⁻¹

U57C U65A
kcat [1]: 1.91e-05 ± 3.6e-07 s⁻¹ | KM [2]: 1410 ± 140 µM | self-cleavage kobs at 40 uM GlcN6P [3]: < 1e-05 s⁻¹

U56C C67U
kcat [1]: 3.78e-05 ± 8.1e-07 s⁻¹ | KM [2]: 7870 ± 360 µM | self-cleavage kobs at 40 uM GlcN6P [3]: < 1e-05 s⁻¹ | self-cleavage kobs at 160 uM GlcN6P [4]: < 1e-05 s⁻¹

U56C C67A
kcat [1]: 4.27e-05 ± 1.5e-06 s⁻¹ | KM [2]: 701 ± 180 µM | self-cleavage kobs at 2500 uM GlcN6P [5]: 3.57e-05 ± 1.4e-05 s⁻¹ | self-cleavage kobs at 10000 uM GlcN6P [7]: 3.95e-05 ± 7.5e-06 s⁻¹

C58U C68A
kcat [1]: 3.52e-05 ± 1.5e-05 s⁻¹ | self-cleavage kobs at 2500 uM GlcN6P [5]: 5.08e-05 ± 2.1e-05 s⁻¹

C61A G66U
kcat [1]: < 1e-05 s⁻¹

U57C U69G
kcat [1]: 2.77e-05 ± 6.2e-06 s⁻¹ | self-cleavage kobs at 160 uM GlcN6P [4]: 3.31e-05 ± 1.4e-05 s⁻¹ | self-cleavage kobs at 640 uM GlcN6P [6]: 3.38e-05 ± 1.3e-05 s⁻¹

U56G U69C C70A
kcat [1]: 6.04e-05 ± 1.7e-05 s⁻¹ | self-cleavage kobs at 160 uM GlcN6P [4]: 4.37e-05 ± 1.6e-05 s⁻¹ | self-cleavage kobs at 640 uM GlcN6P [6]: 8.99e-05 ± 2.7e-05 s⁻¹ | self-cleavage kobs at 2500 uM GlcN6P [5]: 6.56e-05 ± 1.5e-05 s⁻¹

G59A C67A
kcat [1]: 1.53e-05 ± 3.7e-06 s⁻¹

U54A U56A
kcat [1]: 0.0109 ± 0.0014 s⁻¹ | KM [2]: 2140 ± 380 µM | self-cleavage kobs at 40 uM GlcN6P [3]: 0.00022 ± 4e-05 s⁻¹ | self-cleavage kobs at 160 uM GlcN6P [4]: 0.000706 ± 0.0002 s⁻¹ | self-cleavage kobs at 640 uM GlcN6P [6]: 0.00224 ± 0.00048 s⁻¹ | self-cleavage kobs at 2500 uM GlcN6P [5]: 0.00712 ± 0.002 s⁻¹ | self-cleavage kobs at 10000 uM GlcN6P [7]: 0.00887 ± 0.0017 s⁻¹

C58G C61A
kcat [1]: 1.85e-05 ± 4e-06 s⁻¹

U55G U57C
kcat [1]: 0.000252 ± 3.3e-05 s⁻¹ | KM [2]: 4830 ± 1100 µM | self-cleavage kobs at 40 uM GlcN6P [3]: < 1e-05 s⁻¹ | self-cleavage kobs at 640 uM GlcN6P [6]: 3.51e-05 ± 1e-05 s⁻¹ | self-cleavage kobs at 2500 uM GlcN6P [5]: 7.83e-05 ± 1.6e-05 s⁻¹ | self-cleavage kobs at 10000 uM GlcN6P [7]: 0.000174 ± 2.6e-05 s⁻¹

A53U U65C
kcat [1]: 0.000266 ± 3.1e-05 s⁻¹ | KM [2]: 1370 ± 310 µM | self-cleavage kobs at 640 uM GlcN6P [6]: 8.76e-05 ± 1.6e-05 s⁻¹ | self-cleavage kobs at 2500 uM GlcN6P [5]: 0.000196 ± 5.3e-05 s⁻¹ | self-cleavage kobs at 10000 uM GlcN6P [7]: 0.000222 ± 4.6e-05 s⁻¹

A53U U65G
kcat [1]: 0.00461 ± 0.00078 s⁻¹ | KM [2]: 4560 ± 1200 µM | self-cleavage kobs at 40 uM GlcN6P [3]: 3.59e-05 ± 7e-06 s⁻¹ | self-cleavage kobs at 160 uM GlcN6P [4]: 0.000238 ± 5.5e-05 s⁻¹ | self-cleavage kobs at 640 uM GlcN6P [6]: 0.000611 ± 0.00011 s⁻¹ | self-cleavage kobs at 2500 uM GlcN6P [5]: 0.00152 ± 0.0002 s⁻¹ | self-cleavage kobs at 10000 uM GlcN6P [7]: 0.00323 ± 0.00034 s⁻¹

C61A C68A
kcat [1]: 1.17e-05 ± 1.8e-06 s⁻¹

U55A C68A
kcat [1]: 7.99e-05 ± 1.6e-05 s⁻¹ | self-cleavage kobs at 160 uM GlcN6P [4]: 6.93e-05 ± 1.2e-05 s⁻¹ | self-cleavage kobs at 640 uM GlcN6P [6]: 8.04e-05 ± 2.1e-05 s⁻¹ | self-cleavage kobs at 2500 uM GlcN6P [5]: 6.96e-05 ± 1.3e-05 s⁻¹

A53U G66U
kcat [1]: 0.00118 ± 0.00016 s⁻¹ | KM [2]: 2320 ± 590 µM | self-cleavage kobs at 160 uM GlcN6P [4]: 6.64e-05 ± 1.7e-05 s⁻¹ | self-cleavage kobs at 640 uM GlcN6P [6]: 0.000307 ± 7.4e-05 s⁻¹ | self-cleavage kobs at 2500 uM GlcN6P [5]: 0.000716 ± 0.00012 s⁻¹ | self-cleavage kobs at 10000 uM GlcN6P [7]: 0.000904 ± 0.00012 s⁻¹

U55G C67A
kcat [1]: 0.000773 ± 0.00021 s⁻¹ | self-cleavage kobs at 40 uM GlcN6P [3]: 0.000267 ± 4.8e-05 s⁻¹ | self-cleavage kobs at 160 uM GlcN6P [4]: 0.000394 ± 8.8e-05 s⁻¹ | self-cleavage kobs at 640 uM GlcN6P [6]: 0.000772 ± 0.00013 s⁻¹

G59U U69G
kcat [1]: 2.94e-05 ± 8.4e-06 s⁻¹

A53U C58U
kcat [1]: 6.85e-05 ± 2.7e-06 s⁻¹ | KM [2]: 2650 ± 390 µM | self-cleavage kobs at 2500 uM GlcN6P [5]: 3.23e-05 ± 1.2e-05 s⁻¹ | self-cleavage kobs at 10000 uM GlcN6P [7]: 5.43e-05 ± 6.6e-06 s⁻¹

U57G C61G
kcat [1]: 1.3e-05 ± 4.8e-06 s⁻¹

C58G U69G
kcat [1]: 4.22e-05 ± 1.4e-05 s⁻¹ | self-cleavage kobs at 160 uM GlcN6P [4]: 6.03e-05 ± 1.5e-05 s⁻¹ | self-cleavage kobs at 640 uM GlcN6P [6]: 5.7e-05 ± 1.7e-05 s⁻¹ | self-cleavage kobs at 2500 uM GlcN6P [5]: 5.1e-05 ± 1.6e-05 s⁻¹

A53U U57G
kcat [1]: 0.000158 ± 2.7e-05 s⁻¹ | KM [2]: 4010 ± 1600 µM | self-cleavage kobs at 640 uM GlcN6P [6]: 3.61e-05 ± 1.4e-05 s⁻¹ | self-cleavage kobs at 2500 uM GlcN6P [5]: 5.56e-05 ± 1e-05 s⁻¹ | self-cleavage kobs at 10000 uM GlcN6P [7]: 0.000115 ± 1.4e-05 s⁻¹

G60A C61A
kcat [1]: < 1e-05 s⁻¹ | self-cleavage kobs at 40 uM GlcN6P [3]: < 1e-05 s⁻¹ | self-cleavage kobs at 160 uM GlcN6P [4]: < 1e-05 s⁻¹

U54C C61U
kcat [1]: 2.59e-05 ± 2.6e-06 s⁻¹

U55C C71A
kcat [1]: 0.000398 ± 3.4e-05 s⁻¹ | KM [2]: 3820 ± 600 µM | self-cleavage kobs at 640 uM GlcN6P [6]: 5.32e-05 ± 6.9e-06 s⁻¹ | self-cleavage kobs at 2500 uM GlcN6P [5]: 0.000174 ± 1.9e-05 s⁻¹ | self-cleavage kobs at 10000 uM GlcN6P [7]: 0.000283 ± 2.2e-05 s⁻¹
